Data from publication PMC4324353 (2014).
Blank lines part the entries; values can stand above or below the binder they belong to.

Biological target: actin (Oryctolagus cuniculus, UniProt P68135)

Kd: 10 nM
B1: Spire Sc3d WH2 c-Linker 3-WH2 d (second actin at Sc) (protein)
chain: KKDAHAMILEFIRSRPPLKKASDRQLGPPRMCEPSPREQLMESIRKGKELKQITPPEA

Kd: 30 nM
B2: Spire Sc3d WH2 c-Linker 3-WH2 d (second actin at Sd) (protein)
chain: B1 chain
